# Laboratory results published in IntAct's records for PubMed 19242489.
# B1: Integrin beta-4 (Homo sapiens), P16144 (parent)
# chain: MAGPRPSPWARLLLAALISVSLSGTLANRCKKAPVKSCTECVRVDKDCAYCTDEMFRDRRCNTQAELLAAGCQRESIVVMESSFQITEETQIDTTLRRSQMSPQGLRVRLRPGEERHFELEVFEPLESPVDLYILMDFSNSMSDDLDNLKKMGQNLARVLSQLTSDYTIGFGKFVDKVSVPQTDMRPEKLKEPWPNSDPPFSFKNVISLTEDVDEFRNKLQGERISGNLDAPEGGFDAILQTAVCTRDIGWRPDSTHLLVFSTESAFHYEADGANVLAGIMSRNDERCHLDTTGTYTQYRTQDYPSVPTLVRLLAKHNIIPIFAVTNYSYSYYEKLHTYFPVSSLGVLQEDSSNIVELLEEAFNRIRSNLDIRALDSPRGLRTEVTSKMFQKTRTGSFHIRRGEVGIYQVQLRALEHVDGTHVCQLPEDQKGNIHLKPSFSDGLKMDAGIICDVCTCELQKEVRSARCSFNGDFVCGQCVCSEGWSGQTCNCSTGSLSDIQPCLREGEDKPCSGRGECQCGHCVCYGEGRYEGQFCEYDNFQCPRTSGFLCNDRGRCSMGQCVCEPGWTGPSCDCPLSNATCIDSNGGICNGRGHCECGRCHCHQQSLYTDTICEINYSAIHPGLCEDLRSCVQCQAWGTGEKKGRTCEECNFKVKMVDELKRAEEVVVRCSFRDEDDDCTYSYTMEGDGAPGPNSTVLVHKKKDCPPGSFWWLIPLLLLLLPLLALLLLLCWKYCACCKACLALLPCCNRGHMVGFKEDHYMLRENLMASDHLDTPMLRSGNLKGRDVVRWKVTNNMQRPGFATHAASINPTELVPYGLSLRLARLCTENLLKPDTRECAQLRQEVEENLNEVYRQISGVHKLQQTKFRQQPNAGKKQDHTIVDTVLMAPRSAKPALLKLTEKQVEQRAFHDLKVAPGYYTLTADQDARGMVEFQEGVELVDVRVPLFIRPEDDDEKQLLVEAIDVPAGTATLGRRLVNITIIKEQARDVVSFEQPEFSVSRGDQVARIPVIRRVLDGGKSQVSYRTQDGTAQGNRDYIPVEGELLFQPGEAWKELQVKLLELQEVDSLLRGRQVRRFHVQLSNPKFGAHLGQPHSTTIIIRDPDELDRSFTSQMLSSQPPPHGDLGAPQNPNAKAAGSRKIHFNWLPPSGKPMGYRVKYWIQGDSESEAHLLDSKVPSVELTNLYPYCDYEMKVCAYGAQGEGPYSSLVSCRTHQEVPSEPGRLAFNVVSSTVTQLSWAEPAETNGEITAYEVCYGLVNDDNRPIGPMKKVLVDNPKNRMLLIENLRESQPYRYTVKARNGAGWGPEREAIINLATQPKRPMSIPIIPDIPIVDAQSGEDYDSFLMYSDDVLRSPSGSQRPSVSDDTGCGWKFEPLLGEELDLRRVTWRLPPELIPRLSASSGRSSDAEAPHGPPDDGGAGGKGGSLPRSATPGPPGEHLVNGRMDFAFPGSTNSLHRMTTTSAAAYGTHLSPHVPHRVLSTSSTLTRDYNSLTRSEHSHSTTLPRDYSTLTSVSSHDSRLTAGVPDTPTRLVFSALGPTSLRVSWQEPRCERPLQGYSVEYQLLNGGELHRLNIPNPAQTSVVVEDLLPNHSYVFRVRAQSQEGWGREREGVITIESQVHPQSPLCPLPGSAFTLSTPSAPGPLVFTALSPDSLQLSWERPRRPNGDIVGYLVTCEMAQGGGPATAFRVDGDSPESRLTVPGLSENVPYKFKVQARTTEGFGPEREGIITIESQDGGPFPQLGSRAGLFQHPLQSEYSSITTTHTSATEPFLVDGLTLGAQHLEAGGSLTRHVTQEFVSRTLTTSGTLSTHMDQQFFQT
# Variants of: B1
# Details: with plec_human PLEC
row,effect of a mutation on the interaction,Variant
1,disrupting interaction,R1225H

# Variants of: B1
# Details: with plec_human PLEC
# Remark: another data set of the same source
row,effect of a mutation on the interaction,Variant
1,disrupting interaction,R1281A
